Patent publication US20170189508A1 (IMMATICS BIOTECHNOLOGIES, published 2017)
Read-outs that look alike come from different tables or passages of the source.

Key:
HLA-A*02 [1] = target: HLA-A*02 (human)
HLA-A*02 [2] = target: HLA-A*02 (human); assay: as the table's title states

Binder	binding result (HLA-A*02 [1])	binding result (HLA-A*02 [2])
KIIDFLSAL [KIIDFLSAL (SEQ ID NO: 235)]	binds	–
RLMEENWNA [RLMEENWNA (SEQ ID NO: 27)]	–	binds

Now from value to binder:

binding result (HLA-A*02 [1])	binding result (HLA-A*02 [2])	Binder
binds	–	AILAHLNTV [AILAHLNTV (SEQ ID NO: 229)]
binds	–	KLQNIMMLL [KLQNIMMLL (SEQ ID NO: 230)]
